{"source": "the DeepSol protein solubility set", "data": [{"experiment": "soluble on expression in E. coli; label from the status in PepcDB or PDB records", "values": [{"sequence": "MTHSPSFLQHALSSSDTRAEWPLPGGLAARWLAPGCVELNGDARGADSVLLSCGVHGNETAPIEVVDGMLTDIAAGQLALNCRLLVMFANLDAIRQGVRYGNYDMNRLFNGAHARHPELPESVRAAELETLAAEFFAGARARKLHYDLHTAIRGSVFEKFAIYPFLHDGRTHKREQLAWLQRCGIEAVLLHTQPANTFSYFTSQYCEADAFTLELGKARPFGQNDLSRFSGIDGALRGLLSNPQANVPDLDEDKLPLFRAKYDLVKHSEAFKLNLADSVENFTLLPDGMLIAEDGAVRYQATGGEERILFPNPAVKPGLRAGIVVEPARLPSRLEHHHHHH", "soluble on expression in E. coli": "soluble"}, {"sequence": "MTIIKLERRDVRLLLLYEFRLGHSAMEAERNICGAMGEGALSYNTAKSWFQKFKNGDFSLEEIERSGRPVELNEEDLVKLVEEEPRLSLREMEEKLECCHSTIARHLGRLGFTSKLGIWVPHELSASQKLTRVNVCTQLLTFRRKFDWLNNLVTGDEKWVLYVNHSRKRQWLPIGEKGIPTPKPDLHPKKIMICVWWGVQGPVHWELLPTNKTITADYYCAQLDRVAEKTNGKYEKLYFLHDNARPHVAKKTFQKLQDLGWTVLPHPPYSPDLAPTDYHLFLSLSDYMRDKQFDDEEHLKTELSTFFSSRSPDFFSRGIMMLPSKWQQVVDTNGEYLCE", "soluble on expression in E. coli": "not soluble"}, {"sequence": "MTISFNTVPSNTLVPLFYAEMNNSAANTAVTSAPALLIGHASNDAAIEVNSLVLMPSADYARQICGAGSQLARMVEVYRQTDPFGELYVIAVPEARGAAATVRVTVAGEAEESGTLSLYVGRSRVQVPVVNGDDATAVATAIKEAVNGVITLPFTASSDAGVVTLTARHKGLYGNELPVCLNYYGSGGGEILPAGLRVVTEVGAAGSGAPDLTAAVAAMGDEAFDFIGLPFNDAASINMMMTEMNDSSGRWSYARQLYGHVYTAKLGTLSELVGAGDMHNQQHITLAGYEKETQSPVDELVASRLAREAVFIRNDPARPTQTGELVGMLPAPKGKRFIMTEQQTLLSHGVATAYVEGGTLQIQRSVTTYKKNAYGVADNSYLDSETLHTSAYVLRKLKSVITSKYGRHKLANDGTRFGPGQAIVTPAVIKGELLATYRQMERAGIVENYDLFKQYLIVERDADNPNRLNTLFPPDYVNQLRVFAVVNQFRLQYSEESA", "soluble on expression in E. coli": "not soluble"}, {"sequence": "MTKITLSDLPLREELRGEHAYGAPQLNVDIRLNTNENPYPPSEALVADLVATVDKIATELNRYPERDAVELRDELAAYITKQTGVAVTRDNLWAANGSNEILQQLLQAFGGPGRTALGFQPSYSMHPILAKGTHTEFIAVSRGADFRIDMDVALEEIRAKQPDIVFVTTPNNPTGDVTSLDDVERIINVAPGIVIVDEAYAEFSPSPSATTLLEKYPTKLVVSRTMSKAFDFAGGRLGYFVANPAFIDAVMLVRLPYHLSALSQAAAIVALRHSADTLGTVEKLSVERVRVAARLEELGYAVVPSESNFVFFGDFSDQHAAWQAFLDRGVLIRDVGIAGHLRTTIGVPEENDAFLDAAAEIIKLNLSAWSHPQFEK", "soluble on expression in E. coli": "soluble"}, {"sequence": "MTKKSTIQPCLVCGQSSNSILFGAPSCRACGEFFRRKVISNFKIKNNCLGECSFAKKSMKPCQSCRFQKCLEAGMLEKMVFSRKAIYSISNFEKSILEELEEAYSKLEHGRNETFNPKSDSNPKFCSHEELNNTCTIDIQIILDNLISYFQAKKPMGKEQDDVLKMHFIVPFVLFDTAFRAIGKSSYISPDGTMFGGSYVEKLYQDSSNSKIGVNNGKTSREIMESYWKVSYKILKSEMELLQLDRSEFLLLSALIYWDFGLENQSDKCCENCNTIREKVLKELVKYERKKSGQNALRIAMIMGLLQAVPKALDVMKTCGFLSKIYNLRGSGCPLYAISTNSPPQ", "soluble on expression in E. coli": "not soluble"}, {"sequence": "MTLENNMDKKLFCISTYGCQMNEEDSEKLSGMLKSQGYERTENKEEASIIIFNTCCVRENAENKVFGNLGQLKQLKKKNPNLVIAICGCMMQQVGMADKVLKTFPYVDIIFGTHNAHKFPEYLHRVLQEGVQVKEILNKEEGIVEGLPIDRKSDVKAFVTIMYGCNNFCTYCIVPYVRGRERSRKSEDIIKEIEELVSQGYKEITLLGQNVNSYGKGLEEDIDFAGLLRKVNEVKGLERVRFMTSHPKDLSDDVIMAIKECDKLCEQVHLPVQSGSSRILKEMNRHYDREYYLDLVKKIKSEIPDVTLTTDIIIGFPGETEEDFLDTLSLCEEVGYDSAFTFIYSRRNHTPADKMENQIPDDIKHDRFNRLVEAINKKVVIKNKEYEGKVVEVLVEGPSKNDETKLTGRTRNGKLVNFAGDEKLVGELVNLKIVRAQPFSLIGEIVE", "soluble on expression in E. coli": "soluble"}, {"sequence": "MTLGARLVAPMIILLLFIPIELVKAEVITLTPETFSDKIKEKDTAWFVKFCVPWCKHCKKLGNLWEDLGKAMEGDDEIEVGEVDCGTSRAVCTKVEIHSYPTFMLFYNGEEVSKYKGKRDVESLKAFVVEETEKAAEKAQLEDKEL", "soluble on expression in E. coli": "soluble"}, {"sequence": "MTLIILEGPDCCFKSTVAAKLSKELKYPIIKGSSFELAKSGNEKLFEHFNKLADEDNVIIDRFVYSNLVYAKKFKDYSILTERQLRFIEDKIKAKAKVVYLHADPSVIKKRLRVRGDEYIEGKDIDSILELYREVMSNAGLHTYSWDTGQWSSDEIAKDIIFLVELEHHHHHH", "soluble on expression in E. coli": "soluble"}, {"sequence": "MTLISRIKQLAQSKQLTLAQLERNVGISNGQIRRWDTSSPKVENLLKIADYFSVSLDYLMGRTQQTEINHQAPMKSTQKELHIHITTEELTEEEITQLEEEANRFLRFRKFEMTNS", "soluble on expression in E. coli": "not soluble"}, {"sequence": "MTLKFSYFGTRGIGEPIRMLLTDQEVAFIDHRFSWEQWADIKPTMIFGSCPCLTMGDKEIVQSGTIIRHLARIHGLNGTNEEETIFIDMFYEGVRDLHATYATMIYQNYENGRQPFIQDVLPEHLARLEKLFRTYENGENFVAGANISYVDYVLFEELDIQKILSPTALDRTPQLKKFHEQFGERKNLTEYLKKRAIMKTPVNGNGKQ", "soluble on expression in E. coli": "not soluble"}, {"sequence": "MTLLNSRRAAGAFATTLVASTLGLSGCTSVTSSATSSPEPPTKVAAAMQTTTGETSISNETSFNASRETSLTALGFLDYLDEEQRAALLGEGLDISTLTWANQVTALRVLESLFNEHAYELVSAVIQHVAQEPGDNPHHFLKFSPEPSTENSWELTLDGPTVGLKVTFDPDGQITFKDAHLGLSPAEVVSVTEALDTSYSESQIKKAAEQLVGSLNPTQQAALQGSGLRGAQLTEEQKTLFLKMTSNWIDLANGDSGSEQQEEIADTFSDTYIIWNEQKDGSAFFQMKGPELDFSYKESVPENAELSARGVPNIQTSFQSPLEHHHHHH", "soluble on expression in E. coli": "not soluble"}, {"sequence": "MTLLRGTVRTKTSCQLVSAIGTQNCTVWEGYEVSEITPGNSNTSYITWKRSVPNTNLSQPITSCPASTVKFPTCKVGWKLFPRYNTYWCLTLGINRRERDGYLLQFDQSFSYVACRWDGSEFIDGRISGLESNEERAYATDRAYQIMKQNMRETLFVFPSNVRLGWGVWVDGVKDVAGQVKYSDTTLNLKLGYKWDIGQPNWVSRKQACVMLMVPVNQSSRSNGSLRTAEYLRSI", "soluble on expression in E. coli": "not soluble"}, {"sequence": "MTLRAAVFDLDGVLALPAVFGVLGRTEEALALPRGLLNDAFQKGGPEGATTRLMKGEITLSQWIPLMEENCRKCSETAKVCLPKNFSIKEIFDKAISARKINRPMLQAALMLRKKGFTTAILTNTWLDDRAERDGLAQLMCELKMHFDFLIESCQVGMVKPEPQIYKFLLDTLKASPSEVVFLDDIGANLKPARDLGMVTILVQDTDTALKELEKVTGIQLLNTPAPLPTSCNPSDMSHGYVTVKPRVRLHFVELGSGPAVCLCHGFPESWYSWRYQIPALAQAGYRVLAMDMKGYGESSAPPEIEEYCMEVLCKEMVTFLDKLGLSQAVFIGHDWGGMLVWYMALFYPERVRAVASLNTPFIPANPNMSPLESIKANPVFDYQLYFQEPGVAEAELEQNLSRTFKSLFRASDESVLSMHKVCEAGGLFVNSPEEPSLSRMVTEEEIQFYVQQFKKSGFRGPLNWYRNMERNWKWACKSLGRKILIPALMVTAEKDFVLVPQMSQHMEDWIPHLKRGHIEDCGHWTQMDKPTEVNQILIKWLDSDARNPPVVSKM", "soluble on expression in E. coli": "soluble"}]}]}
